Assay results published in the nanobody polyreactivity screen of Harvey et al. (2022).

Test: yeast display, Sf9 membrane polyspecificity reagent, FACS + sequencing; frameworks hold sequencing errors
Method in brief: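 Synthetic nanobody libraries on Saccharomyces cerevisiae BJ5465 were galactose-induced for 36–48 hours, stained 1 hour at 4 °C with 10% biotinylated, detergent-solubilized Sf9 membrane reagent and enriched on streptavidin microbeads. FACS then separated cells into low and high (top ~1%) gates by anti-HA (expression) and streptavidin (reagent binding) fluorescence. Genes were colony-PCR amplified, MiSeq 2 × 250 sequenced and CDR-length filtered. A clone's polyreactivity label is that of its gate of origin.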

With “QVQLVESGGGLVQAGGSLRLSCAASGRIIGLYTMGWYRQAPGKERELVAAINIRGTRTYYADSVKGRFTISRDNAKNTVYLQMTSLKPEDTAVYYCNAYPKSWELDYWGLGTQVTVSS” the “polyreactivity (PSR sort gate)” value was “high polyreactivity”.
For “QVQLVESGGGLVQAGGSLRLSCAASGRIFHRYAMGWYRQAPGKERELVAAISYSTARTYYADSVKGRFTISRDNAKNTVYLQMNSLKPEDTAVYYCAARYQGGYDYWGQGTQVTVSS”, the “polyreactivity (PSR sort gate)” value was “high polyreactivity”.
For “QVQLVESGGGVVQAGGSLRLSCAASGFIFTFYAMGWYRQAPGKERELVAAITGRGGRTYYADSVKGRFTISRDNAKNTVYLQMNSLKPEDTAVYYCAARYRYSVTPGYVYWGQGTQVTLSS”, the “polyreactivity (PSR sort gate)” value was “high polyreactivity”.
With “QVQLVESGGGLVQAGGSLRLSCAASGSTFGANAMGWYRQAPGKEREFVAAISGSGTTTYYADSVKGRFTISRDNAKNTVYLQINSLKPEDTAVYYCAKTRKAHWLEYWGQGTQVTVSS” the “polyreactivity (PSR sort gate)” value was “low polyreactivity”.
With “QVQLVESGGGLVQAGCSLRLSCAASGSTFRYYPMGWYRQAPGKEREFVAAITWRDGSTYYADSVKGRFTISRDNAKNTVYLQMNSLKPEDTAVYYCAARNSHVGYYDEYYYWGQGTQVTVSS” the “polyreactivity (PSR sort gate)” value was “low polyreactivity”.
With “QVQLVESGGGLVQAGGSLRLSCAASGSTLVYNDMGWYRQAPGKEREFVAAIRSNDGSTYYADSVKGRFTISRDNAKNTVYLQMNSLKAEDTAVYYCNKDVWDGYDWPEFDYWGQGTQVTVSS” the “polyreactivity (PSR sort gate)” value was “low polyreactivity”.
For “QVQLVESGGGLVQAGGSLRLSCAASGFIVDTYAMGWYRQAPGKERELVAVISSSGGRTYYADSVKGRFTISRDNAKNTVYFQMNSLKPEDTAVYYCAARWYSGYGRFDYWGQGTQVTVSS”, the “polyreactivity (PSR sort gate)” value was “high polyreactivity”.
With “QVQLVESGGGLVQAGGSLRLSCAASGGTFRYNAMGWYRQAPGKERELVAAITSVGITNYADSVKGRFTISRDNAKNTVYLQMNSLKPEDTAVYYCAKRYYRYGARSWYYPYDYWGQGTQVTVSS” the “polyreactivity (PSR sort gate)” value was “high polyreactivity”.
With “QVQLVESGGGLVQAGGSLRLRCAASGGTFRYNAMGWYRQAPGKERELVAAISSSGGSTYYADSVKGRFTISRDNAKNTVYLQMNSLKPEDTAVYYCAAKRRRYVELDYWGQGTQVTVSS” the “polyreactivity (PSR sort gate)” value was “high polyreactivity”.
In the case of “QVQLVESGGGVVQAGGSLRLSCAASGSFFYVYAMGWYRQAPGKERELVAAITATYYADSVKGRFTISRDNAKNTVYLQMNSLKPEDTAVYYCAAAPWTYWEDYDFWGQGTQVTVSS”, the “polyreactivity (PSR sort gate)” value is reported as “low polyreactivity”.
In the case of “QVQLVESGGGLVQAGGSLRLSCAASGRTFNPYAMGWYRQAPGKERELVAVISYIGGSTYADSVKGRFTISRDNEKNTVYLQMNSLKPEDTAVYYCNRATFGQWGCDYWGQGTQVTVSS”, the “polyreactivity (PSR sort gate)” value is reported as “high polyreactivity”.
For “QVQHVESGGGLVQARGSLRLSCSASGVIFYNYAMGWSRQAPGKEREFVAAISGSGGSTYYADSVKGRFTISRDNAKNTVYLQMNSLKPEDTAVYYCAVRQRYGPARYDYWGQGTQVTVSS”, the “polyreactivity (PSR sort gate)” value was “high polyreactivity”.
With “QVQLVESGGGLVQAGGRLRLTCAASGSIFWSNAMGLYRQAPGKERELVAAITSGGSTYYADSVKGRFTISRDNAKNTVYLQMNSLKPEDTAVYYCAARPEVRHQYRRYDYWGQGTQVTVSS” the “polyreactivity (PSR sort gate)” value was “low polyreactivity”.
For “QVQLVESGGGLVQEGGSLRLSCAASGNTLRVYAMGRYRQAPGTERELVAAISSSGGSTYYADSVKGRFTISRDNAKNTVYLQMYSLKPEDTAVYYCAKDNGPWFAYDYWGQGTQVTVSS”, the “polyreactivity (PSR sort gate)” value was “low polyreactivity”.
With “QVQLVESGGGIVQAGGSLRLSCGASGSIFVTYTMGWYRQAPGKERELVAAITSDGRTYYADSVKGRFTISRDNAKNTVYLQMNCLKPEDTAVYYCAADSSGYYWFNYWGQGTQVTVSS” the “polyreactivity (PSR sort gate)” value was “low polyreactivity”.
For “QVQLVESGGGLVQAGGRLRLSCAASGSTFLVYAMGWYRQAPGKERELVAAIDSGVSTYYADSVKGLFTISRDNAKNTVYLQMNSLKPEDTAVYYCNGYDYWGQGTQVTVSS”, the “polyreactivity (PSR sort gate)” value was “low polyreactivity”.
In the case of “QVQLVESGGGLVQAGGSLRLSCAASGRTLHDYTMGWYRQSPGKERELVAGITSGGRTNYADSVKGRFTISRDNAKNTVYLQMNSLKPEDTADYYCAAAWTWWRLYAVDYWGQGTQVTVSS”, the “polyreactivity (PSR sort gate)” value is reported as “high polyreactivity”.
In the case of “QVQLVESGGGIVQAGGSLRLSCAASGRIFPHNAMGWDRQAPGKERELVAAITKSGDDTYYADSVKGRFTISRDNAKNTVYLQMNSLKPEDTAVYYCAAYLSWYDYWGQGTQVTVSS”, the “polyreactivity (PSR sort gate)” value is reported as “low polyreactivity”.
In the case of “QVQLVESGGGLVQAGASLRLSCAASGRTFEANTMGWYRQAPGKERELVAAITRNGGSTYYADSVKGRFTISRDNAKNTVYLQMNSLKPEDPAVYYCAARSAYRSRHKYDYWGQGTQVTVSS”, the “polyreactivity (PSR sort gate)” value is reported as “high polyreactivity”.
For “QVQLVVSGGGLVQAGGSLRLSCAASGRIFVYNAMGWYRQAPGKERELVATITSGGSTYYADSVKGRFTISRDNAKNTVYLQMNSLKPEDTAVYYCAARRWYVHYFAYGYWGQGTQVTVSS”, the “polyreactivity (PSR sort gate)” value was “low polyreactivity”.
With “QVQLVESGGGLVQAGGSLRLSCAASGRTFQYNAMGWNTQAPGKERELVAAISSGGSTYYADSVKGRFTISRDNAKNTVYLQMNSLKPEDTAVYYCNAVTGYQHVKYRYYYWGQGTQVTVSS” the “polyreactivity (PSR sort gate)” value was “low polyreactivity”.
With “QVQLVESGGGLVQAGGSLRLICAASGYIFKYYAMGWYRQAPGKERELVATINYSGGGTYYADSVKGRFTISRDNAKNTVYLQMNSLKPEDTAVYYCAAREKYISYSYYYWGQGTQVTVSS” the “polyreactivity (PSR sort gate)” value was “high polyreactivity”.
In the case of “QVQLVESGGGLVQAGGSLRLSCAASGRTFVRNAMGWYRQAPGKERELVASITSGGSTYYADSVKGRFTISRDNAKNTVYLQMNSLKAEDTAVYYCAKRTYTPVYGYYYWGQGTQVTVSS”, the “polyreactivity (PSR sort gate)” value is reported as “high polyreactivity”.
For “QVQIVESGGGLVQAGGSLRLSCGASGSTLGWYGMGWYRQAPGKERELVATISESGGSTYYADSVKGRFTISRDNAKNTVYLQMNSLKPEDTAVYYCAADDRGLISRRGYFYLSYDYWGQGTQVTVSS”, the “polyreactivity (PSR sort gate)” value was “low polyreactivity”.
With “QVQLVESGGGLVQAGGSLRLSCAASGIIFWWYAMGWSRQAPGKERELVAAISGTGGSTYYADSVKGRFTISRDNAKNTVYLQMNSLKPEDTAVYYCAKRASPFWRGYDSWGQGTQVTVSS” the “polyreactivity (PSR sort gate)” value was “low polyreactivity”.
With “QVHLVESGGGLVQAGGSLRLSCAASGFTLFGYAMGWYRQAPGKERELVAAISKDGGSTYYADSVKGRFTISRDNAKNTVYLQMNSLKPEDTAVYYCAARVKRPQTGYDRRYGYWGQGTQVTVSS” the “polyreactivity (PSR sort gate)” value was “high polyreactivity”.
With “QVQIVESGGGLVQAGGSLRLSCAASGSIFFAYAMGSYRQAPGKERELVAAITGSGGSTYADSVKGRFTISRDNAKNTVYVQMNSLKPEDTAVYYCAKDHYYYPYKRLFVGHEYWGQGTQVTVSS” the “polyreactivity (PSR sort gate)” value was “low polyreactivity”.
In the case of “QVQLVESGGGLVLAGGSLRLSCAASGSTFTIYALGWYRQAPVKQRELVAAITSGGSTYADSVKRRFTISRDNAKNTVYLEMNSLKPEETAVDYCATVTFSHAQRTWYDYWGQGSQVTVSS”, the “polyreactivity (PSR sort gate)” value is reported as “high polyreactivity”.
For “QVQLQESGGGMVQAGGSLRLSCASSGYISWADYMGWSRQAPGKERELVDGIGYGSTTYYADSVKGRFNISRDNAKNTAYLQMISLKPEDTAVYYCAVGWYSVTAYNYWGQGTQVTVSS”, the “polyreactivity (PSR sort gate)” value was “low polyreactivity”.
With “QVQLVESGGGLVQAGGSLRLSCAASGSILIWNTMGWYRQAPGKERELVAAISSGASTYYADSVKGRFTISRDNAKNTVYLQMNSLKPEDTAVYYFYVDLPRVLTDDSWGQGTQVTVSS” the “polyreactivity (PSR sort gate)” value was “low polyreactivity”.
For “QVQLVETGGGLVQAGGSLRLSCAASGRIFRNNAMGWYRQAPGKERELVAGISSGGSTYYADSVKGRFTMSRDNAKKTVYLQMNNLKPEDTAVYFFAVVGSAYQSRYDYWGQGNQVTVSS”, the “polyreactivity (PSR sort gate)” value was “high polyreactivity”.
With “QFQLVESGGGLVQAGGSLRLSCAASGIIFGNNAMGWYRQAPGKERELVAAIRWSTGTTYYADSVKGRFTISRDNAKNTVYLQMNSLKPEDTAVYYCAARLRREYGYWGQGTQVTVSS” the “polyreactivity (PSR sort gate)” value was “high polyreactivity”.
For “QVQLVESGGGLVQAGGSLRLSCAASGSTFTYNARGWYRQAPGKERELVAVIRPGGTTNYADSVKGRFTISRDNAKNTVYLQMNSLKPEDTAVYYCAKFFGNYSIYDYWGQGTQVTVSS”, the “polyreactivity (PSR sort gate)” value was “low polyreactivity”.
With “QVQLVESGGGLVQAGGSLRLSCAASGSTFSGNAMGWYRQAPGKEMEMVAAISGRGGSTYYADSVKGRFTISRDNAKNTVFLQMKSLKPEDTAVYYCAKRRNTRGAYGYWGQGTQVTVSS” the “polyreactivity (PSR sort gate)” value was “high polyreactivity”.
With “QVQLVESGGGLVQAGGSLRLSCAASGRIFSYYAMGWYRQAPGKERELVAAISWNGGSTYYADSVKGRFTISRDNAKNTVYLQMNSLKPEDTAVYYCIRLGYRTGYERDYWGQGTQVTVSS” the “polyreactivity (PSR sort gate)” value was “high polyreactivity”.
For “QVQLVESGGGLVQAGGSLRLSCAASGFTFSSYAMGWYRQAPGKERELVAAITYRGGSTYYADSVKGRFTISRDNAKNTVYLQMNSLKPEDTAVYYCAARWGYRMYWGQGTQVTVSS”, the “polyreactivity (PSR sort gate)” value was “high polyreactivity”.
With “QVQLVESGGGLVEAGGSLRLSCAASGRTFANNAMGWYRQAPGKERELVARISNSGSTNYADSVKGRFTISRDNANNTVYLQMNSLNPEDTAVYYCAARIVRLYSRYDYWGQGTQVTVSS” the “polyreactivity (PSR sort gate)” value was “low polyreactivity”.
For “QFQLVESGRGLVQAGGSLRLSCAASGSTFSANAMGWYRQAPGKERELVAAISRSGTRTYYADSVKGRFTISRDNAKNTVYLQMNSLKPEDTAVYYCAAYVYQYGYDYWGQGTQVTVSS”, the “polyreactivity (PSR sort gate)” value was “high polyreactivity”.
With “QVQLVESGGGLVQAGGSLRLSCSSSGLIFRRNAMGWYRQAPGKERELVAVIDRGGRTNYADSVKGRFTISRDNAKNTVYLQMNSLKPEDTAVYYCDKRYASTSGYWGQGTQVTVSS” the “polyreactivity (PSR sort gate)” value was “high polyreactivity”.
With “QVQLVESGGGLVQAGGSLRLSCAASGSTFYKYAMGWYRQAPGKERELVAAISASGGSTYYADSVKVRFTISRDNAKNTVYLQMNSLNPEDTAVYYCAKASAYSAYADHDYYWGQGTQVTVSS” the “polyreactivity (PSR sort gate)” value was “high polyreactivity”.
With “QVQHVESGGGLVQAGGSLRLSCAASGRIFAFYAMGWYRQAPGKEREFVAAITWSGTNTYYADSVKGRFTISRDNAKNTVYLQMNSLKPEDTAVYYCNARQYYKYGYWGQGTQVTVSS” the “polyreactivity (PSR sort gate)” value was “high polyreactivity”.
In the case of “QVQLVESGGGLVQAGGSLRLSCAASGRTFRYYAMGWYRQAPGKEREFVAAITSRSSRTYYADSVKGRFTISRDTAKNTVYLQMNSLKPEDTAVYYCARGSELGYYAWVYYWGQGTQVTVSS”, the “polyreactivity (PSR sort gate)” value is reported as “high polyreactivity”.
For “QVQLVESGGGLVQAGGSLRLSCAASGFTFNGYAMGWYRQAPGHERELVAGITRRGGITYYADSVKGRFTISRDNAKNTVYLPMNSLKPEDTAVYYCARDYIGHALIHHASLYYYWGQGTQVTVSS”, the “polyreactivity (PSR sort gate)” value was “high polyreactivity”.
